Consider five molecules from publication PMC7794362, “Structural basis for distinct inflammasome complex assembly by human NLRP1 and CARD8” (Nature Communications, 2021).

A value given as a limit tells only on which side of the number the result lay.

Sequences and labels used below:
T1: NLRC4-CARD without SNAP (filament seed) (human, UniProt Q9NPP4 1-102)
T1 construct: CARD domain of human NLRC4, residues 1-102, construct without SNAP tag; source: E. coli BL21(DE3), purified (Ni-NTA, SEC), oligomeric seed fraction
T1 sequence (looked up): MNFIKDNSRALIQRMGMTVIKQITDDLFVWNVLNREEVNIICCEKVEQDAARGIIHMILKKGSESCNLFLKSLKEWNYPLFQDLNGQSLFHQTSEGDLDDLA

B1: recombinant NLRP1-FIIND^UPA-CARD (a.a. 1213-1473), bacteria-derived (domain or fragment, human, UniProt Q9C000 1213-1473, looked up)
chain: SPLGVLLKMIHNALRFIPVTSVVLLYHRVHPEEVTFHLYLIPSDCSIRKAIDDLEMKFQFVRIHKPPPLTPLYMGCRYTVSGSGSGMLEILPKELELCYRSPGEDQLFSEFYVGHLGSGIRLQVKDKKDETLVWEALVKPGDLMPATTLIPPARIAVPSPLDAPQLLHFVDQYREQLIARVTSVEVVLDKLHGQVLSQEQYERVLAENTRPSQMRKLFSLSQSWDRKCKDGLYQALKETHPHLIMELWEKGSKKGLLPLSS
notes: C-terminal auto-cleavage fragment (FIIND^UPA-CARD) of human NLRP1, a.a; 1213-1473; also called NLRP1-FIIND^UPA-CARD filaments; SNAP-NLRP1-FIIND^UPA-CARD
B2: NLRC4-CARD filament (SNAP tag cleaved off), solved by cryo-EM (domain or fragment, human, UniProt Q9NPP4 1-102, looked up)
chain: T1 sequence (looked up)
notes: CARD domain of human NLRC4, residues 1-102; also called NLRC4-CARD thin filament; source: E. coli BL21(DE3), purified; filaments grown from SNAP-tagged monomer with seeds, SNAP cleaved by 3C protease, Superose 6; not shown: SNAP, C-terminal, cleaved
B3: recombinant CARD8-CARD (451-537) (domain or fragment, human, UniProt Q9Y2G2-5 451-537, looked up)
chain: AAFVKENHRQLQARMGDLKGVLDDLQDNEVLTENEKELVEQEKTRQSKNEALLSMVEKKGDLALDVLFRSISERDPYLVSYLRQQNL
notes: CARD domain of human CARD8, residues 451-537; the numbers fit the 537-residue isoform; Called 'untagged' in the seeding experiment, there meaning without the SNAP tag; also called CARD8-CARD filaments; CARD8-CARD without SNAP; source: E. coli BL21(DE3), purified (Ni-NTA, SEC)
B4: CASP1-CARD-SNAP (domain or fragment, human, UniProt P29466 1-92, looked up)
chain: MADKVLKEKRKLFIRSMGEGTINGLLDELLQTRVLNKEEMEKVKRENATVMDKTRALIDSVIPKGAQACQICITYICEEDSYLAGTLGLSAD
modifications: Alexa Fluor 647 (BG-Alexa dye) on the SNAP tag in the native gel assay
notes: CARD domain of human caspase-1, residues 1-92; A 3C protease site lies between the CARD and the SNAP tag; also called SNAP-tagged CASP1-CARD; fluorescently labeled CASP1-CARD; not shown: SNAP, C-terminal, kept
B5: recombinant NLRP1-CARD (filament solved by cryo-EM) (domain or fragment, human, UniProt Q9C000 1374-1466, looked up)
chain: DAPQLLHFVDQYREQLIARVTSVEVVLDKLHGQVLSQEQYERVLAENTRPSQMRKLFSLSQSWDRKCKDGLYQALKETHPHLIMELWEKGSKK
notes: CARD domain of human NLRP1, construct 1374-1466; the results say that trimming of the last eight a.a; (1466-1473) stabilised the homogeneous single filament; two CARD constructs (1374-1466, 1374-1473) were cloned; also called NLRP1-CARD core filament; source: E. coli BL21(DE3), purified (Ni-NTA, SEC), concentrated to ~400 uM

Data set [1] deals with the molecule itself. Nature of the data set: negative stain EM; recombinant NLRP1 constructs at various concentrations (Fig. 1e, f); samples below ~200 uM; NLRP1-CARD alone or with FIIND^UPA at 1:1 molar ratio.
Data set [2] concerns the molecule itself. Put plainly: cryo-EM structure; helical reconstruction of CARD filaments; ~2 mg/ml on Quantifoil R1.2/1.3 grids, Titan Krios 300 kV, RELION 3.0.
The target in data set [3] is B4. Put plainly: native gel or EMSA; in vitro oligomerization assay: Alexa Fluor 647-labelled monomeric SNAP-ASC-CARD or CASP1-CARD-SNAP (10 uM) mixed with 20 or 5 uM seed oligomer for 15 min at room temperature; Bis-Tris native PAGE, fluorescence scan. The following applies: both partners purified. Background: A gel shift assay detects complexes by their altered migration in electrophoresis.

In data set [4] the target is T1, NLRC4-CARD without SNAP (filament seed). The data set is described as above. The note with it: both partners purified.
Data set [5] concerns the molecule itself. Described as above.

For the molecule B1, the “fold lower concentration requirement for oligomerization, against NLRP1-CARD” value in data set [1] was ≥ 50 fold.
For the molecule B2, the binding result in data set [2] is given as “binds”.
Take B3: the binding result in data set [3] and in data set [2] was “binds” in each case.
Take B4: the binding result in data set [4] and in data set [5] was “binds” throughout.
Regarding B5, the binding result in data set [2] is listed as “binds”.
